# From patent publication US20160311912A1 (RINAT NEUROSCIENCE, published 2016)
# Substitutions are numbered along the chain they refer to.
# B1: H3-C10 (antibody, V domains shown)
# VH: QVQLVQSGAEVKKPGASVKVSCKASGYTFTDFSVHWVRQAPGQGLEWMGWINTETDETSYADDFKGRVTMTRDTSTSTVYMELSSLRSEDTAVYYCVKSLYWSYGPPDYWGQGTTVTVSS
# VL: DIQMTQSPSSLSASVGDRVTITCRASQNIRTAVVWYQQKPGKAPKLLIYLATNRHSGVPSRFSGSGSGTDFTFTISSLQPEDIATYYCLQHWTYPFSFGGGTKLEIK
# B2: H2-A8 (antibody, V domains shown)
# VH: B1 VH with T55F, E57F, L100R, Y101G
# VL: B1 VL
# B3: H2-A11 (antibody, V domains shown)
# VH: B1 VH with T55Y, E57F, L100R, Y101G
# VL: B1 VL
# B4: H2-C8 (antibody, V domains shown)
# VH: B1 VH with D56R, E57G, L100R, Y101G
# VL: B1 VL
# B5: H2-E7 (antibody, V domains shown)
# VH: B1 VH with I51Y, T53L, L100R, Y101G
# VL: B1 VL
# B6: H2-F10 (antibody, V domains shown)
# VH: B1 VH with T53L, T55F, L100R, Y101G
# VL: B1 VL
# B7: H2-F11 (antibody, V domains shown)
# VH: B1 VH with T55F, E57Y, L100R, Y101G
# VL: B1 VL
# B8: H3-F5 (antibody, V domains shown)
# VH: B1 VH with Y101F
# VL: B1 VL
# B9: H3-H9 (antibody, V domains shown)
# VH: B1 VH with L100R, Y101W
# VL: B1 VL
# B10: H2-A11-H3-1 (antibody, V domains shown)
# VH: B1 VH with T55Y, E57F, K98E
# VL: B1 VL
# B11: H2-A11-H3-2 (antibody, V domains shown)
# VH: B1 VH with T55Y, E57F, Y101F
# VL: B1 VL
# B12: H2-A11-H3-3 (antibody, V domains shown)
# VH: B1 VH with T55Y, E57F
# VL: B1 VL
# B13: H2-A11-H3-4 (antibody, V domains shown)
# VH: B1 VH with T55Y, E57F, L100R, Y101W
# VL: B1 VL
# B14: H2-C8-H3-2 (antibody, V domains shown)
# VH: B1 VH with D56R, E57G, Y101F
# VL: B1 VL
# B15: H2-C8-H3-3 (antibody, V domains shown)
# VH: B1 VH with D56R, E57G
# VL: B1 VL
# B16: H2-C8-H3-4 (antibody, V domains shown)
# VH: B1 VH with D56R, E57G, L100R, Y101W
# VL: B1 VL
# B17: H2-E7-H3-2 (antibody, V domains shown)
# VH: B1 VH with I51Y, T53L, Y101F
# VL: B1 VL
# B18: H2-E7-H3-3 (antibody, V domains shown)
# VH: B1 VH with I51Y, T53L
# VL: B1 VL
# B19: H2-E7-H3-4 (antibody, V domains shown)
# VH: B1 VH with I51Y, T53L, L100R, Y101W
# VL: B1 VL
# B20: anti-glucagon receptor antagonist antibody mAb5 (antibody, V domains shown)
# VH: B1 VH with L100R
# VL: DIQMTQSPSSLSASVGDRVTITCQASQNIRTAVVWYQQKPGKAPKLLIYLASNRHSGVPSRFSGSGSGTDFTFTISSLQPEDIATYYCLQHWTYPFTFGGGTKVEIKR
# notes: Fluorescence-labeled in the yeast display experiment
# B21: mAb1 (antibody, V domains shown)
# VH: QIQLVQSGPELKKPGETVKISCKASGYTFTDFSIHWVKQAPGKGLKWMGWINTETDESTYADDFKGRFAFSLETSASTAYLQINNLKNEDTATYFCVKSRGWTYGPPDYWGQGTTLTVSS
# VL: DIVMTQSQKFMSASVGDRVSITCKASQNVRTAVVWFQQKPGQSPNTLIYLASNRHSEVPDRFTGSGSGTDFTLTISNVQSEDLADYFCLQHWTYPFTFASGTKLEIK
# B22: mAb2 (antibody, V domains shown)
# VH: B1 VH with L100R, Y101G
# VL: B1 VL
# B23: mAb4 (antibody, V domains shown)
# VH: QVQLVQSGAEVKKPGASVKVSCKASGYTFTSSLIHWVRQAPGQGLEWMGYINPYNDGTKYNEKFKGRVTMTRDTSTSTVYMELSSLRSEDTAVYYCARMDYGNLWYFDVWGQGTLVTVSS
# VL: EIVLTQSPATLSLSPGERATLSCRASENIYYSLAWYQQKPGQAPRLLIYNANSLEDGIPARFSGSGSGTDFTLTISSLEPEDFAVYYCKQAYDVPFTFGGGTKVEIK
# B24: FF2 (antibody, V domains shown)
# VH: B1 VH with T55Y, E57F
# VL: B1 VL with R24Q, T52S, S97T, L104V
# B25: FF2-H2RG (antibody, V domains shown)
# VH: B1 VH with D56R, E57G
# VL: B1 VL with R24Q, T52S, S97T, L104V
# B26: FF2-H2WT (antibody, V domains shown)
# VH: B1 VH
# VL: B1 VL with R24Q, T52S, S97T, L104V
# B27: FF2-H2WT H3RY (antibody, V domains shown)
# VH: B1 VH with L100R
# VL: B1 VL with R24Q, T52S, S97T, L104V
# B28: FF2-H3RY (antibody, V domains shown)
# VH: B1 VH with T55Y, E57F, L100R
# VL: B1 VL with R24Q, T52S, S97T, L104V
# Target: T1, glucagon receptor (target of the KD / T½ of Tables 1A, 1B and 2B) (Homo sapiens (Human), UniProt P47871 26-136)
# T1 construct: not shown: Human Fc carrier (and any linker) of the ECD-Fc fusion
# Assay: not stated; 25° C.
# T1 sequence (P47871 26-136 limits assumed): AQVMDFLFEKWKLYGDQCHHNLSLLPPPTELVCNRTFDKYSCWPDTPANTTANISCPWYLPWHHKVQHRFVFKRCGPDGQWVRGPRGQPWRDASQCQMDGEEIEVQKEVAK
row,Binder,T½ [h]
1,B1,0.0613
2,B2,0.346
3,B3,0.438
4,B4,0.344
5,B5,0.228
6,B6,0.36
7,B7,0.296
8,B8,0.04
9,B9,0.0377

# Target: T1, glucagon receptor (target of the KD / …)
# Assay: not stated; 37° C.
row,Binder,T½ [h]
1,B10,4.19
2,B11,8.53
3,B12,17.2
4,B13,6.36
5,B14,6.89
6,B15,12.4
7,B16,5.3
8,B17,7.94
9,B18,14.9
10,B19,7.37

# Target: human glucagon receptor on stably transfected CHO cells (human, UniProt P47871 26-477)
# Assay: cell-based or functional assay
# human glucagon receptor on stably transfected CHO cells, sequence (P47871 26-477 limits assumed): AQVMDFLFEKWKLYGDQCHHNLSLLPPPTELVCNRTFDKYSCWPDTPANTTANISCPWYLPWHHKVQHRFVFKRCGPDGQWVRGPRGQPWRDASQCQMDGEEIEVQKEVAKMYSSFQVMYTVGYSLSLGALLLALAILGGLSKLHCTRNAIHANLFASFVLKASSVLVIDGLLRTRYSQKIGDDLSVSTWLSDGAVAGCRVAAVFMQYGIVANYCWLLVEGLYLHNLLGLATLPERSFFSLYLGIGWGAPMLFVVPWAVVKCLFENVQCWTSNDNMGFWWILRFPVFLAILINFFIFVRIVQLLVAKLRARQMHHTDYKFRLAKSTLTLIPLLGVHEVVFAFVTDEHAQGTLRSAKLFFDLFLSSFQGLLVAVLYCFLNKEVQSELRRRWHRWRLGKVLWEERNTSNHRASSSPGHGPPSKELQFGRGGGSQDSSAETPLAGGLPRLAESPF
row,Binder,IC50 (read off the curve) [µg/mL]
1,B20,~1

# Target: T1, glucagon receptor (target of the KD / …)
# Assay: not stated (column of Table 1A)
Binder,Kd [nM],T½ [min]
B20,0.224,–
B21,0.64,–
B22,–,5.75
B23,10.2,–

# Target: T1, glucagon receptor (target of the KD / …)
# Assay: not stated (column of Table 1B)
row,Binder,Kd [nM]
1,B24,0.171
2,B25,0.187
3,B26,< 0.2
4,B27,0.224
5,B28,< 0.125

# Target: T1, glucagon receptor (target of the KD / …)
# Assay: not stated; 37° C. (entry printed a second time)
row,Binder,T½ [h]
1,B13,6.36
2,B14,6.89
3,B15,12.4
